One block for each binder: values may come before it. Where no end group is shown, it is not given here. The star is where a group is joined. Biotin = O=C1N[C@H]2[C@H](CS[C@H]2CCCCC(=O)*)N1
Key:
Experiment in all cases: AlphaScreen or HTRF
[1] = molecular target: GST-KLHDC10 (full length) with Elongin B/C (human | , UniProt Q6PID8 1-442; Q15370 1-104; Q15369 1-112)
GST-Pirh2_(15-195) = molecular target: T1, GST-Pirh2_(15-195) (human, UniProt Q96PM5 15-195)
T1 sequence: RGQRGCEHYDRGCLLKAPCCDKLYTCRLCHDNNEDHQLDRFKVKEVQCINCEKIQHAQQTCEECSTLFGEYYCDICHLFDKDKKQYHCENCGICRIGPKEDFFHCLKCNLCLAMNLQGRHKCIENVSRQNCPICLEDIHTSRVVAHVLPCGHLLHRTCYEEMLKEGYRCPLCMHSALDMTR

GST-Pirh2_(1–195) = molecular target: T2, GST-Pirh2_(1–195) (human, UniProt Q96PM5 1-195)
T2 sequence: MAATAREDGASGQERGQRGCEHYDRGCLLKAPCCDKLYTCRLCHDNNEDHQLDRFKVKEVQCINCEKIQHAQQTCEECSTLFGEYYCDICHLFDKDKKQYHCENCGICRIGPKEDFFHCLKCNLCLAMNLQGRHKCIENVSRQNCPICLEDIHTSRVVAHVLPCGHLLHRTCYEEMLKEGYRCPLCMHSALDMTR

Chain of GST-KLHDC10 (full length) with Elongin B/C (Q6PID8 whole entry, chain 1 of 2): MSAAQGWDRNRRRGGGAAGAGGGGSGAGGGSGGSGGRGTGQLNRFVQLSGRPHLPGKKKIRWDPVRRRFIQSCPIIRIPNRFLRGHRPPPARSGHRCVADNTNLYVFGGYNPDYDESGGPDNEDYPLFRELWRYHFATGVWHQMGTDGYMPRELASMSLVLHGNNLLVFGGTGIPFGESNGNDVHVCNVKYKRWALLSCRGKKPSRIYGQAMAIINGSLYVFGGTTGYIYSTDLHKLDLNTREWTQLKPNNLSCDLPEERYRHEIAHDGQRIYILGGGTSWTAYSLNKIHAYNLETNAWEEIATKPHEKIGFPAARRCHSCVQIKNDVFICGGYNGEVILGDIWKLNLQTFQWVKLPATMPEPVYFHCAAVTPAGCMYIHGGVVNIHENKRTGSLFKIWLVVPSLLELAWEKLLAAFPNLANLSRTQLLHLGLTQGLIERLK
Chain of GST-KLHDC10 (full length) with Elongin B/C (Q15369 whole entry, chain 3 of 2): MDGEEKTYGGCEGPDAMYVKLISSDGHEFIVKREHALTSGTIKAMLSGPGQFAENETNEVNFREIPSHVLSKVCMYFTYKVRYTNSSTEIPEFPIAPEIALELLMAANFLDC

B1: Biotin-MDELYKAAAAAA (peptide)
peptide: Biotin-MDELYKAAAAAA
binding result [1]: binds

B2: MDELYKAAALAA (peptide)
peptide: MDELYKAAALAA
fold reduction of binding against the Ala6 peptide (GST-Pirh2_(15-195)): 3 fold

B3: MDELYKAAAAAD (peptide)
peptide: MDELYKAAAAAD
IC50 (GST-Pirh2_(15-195)): ~26000 nM

B4: MDELYKAAGAAA (peptide)
peptide: MDELYKAAGAAA
fold reduction of binding against the Ala6 peptide (GST-Pirh2_(15-195)): 100 fold

B5: MDELYKGAAAAA (peptide)
peptide: MDELYKGAAAAA
IC50 (GST-Pirh2_(15-195)): ~60 nM

B6: MDELYKLAAAAA (peptide)
peptide: MDELYKLAAAAA
IC50 (GST-Pirh2_(15-195)): ~60 nM

B7: MDELYKAAAAAG (peptide)
peptide: MDELYKAAAAAG
IC50 (GST-Pirh2_(15-195)): ~2000 nM

B10: MDELYKAAAAA (peptide)
peptide: MDELYKAAAAA
IC50 (GST-Pirh2_(15-195)): ~50 nM

B12: LYKAAAAA (peptide)
peptide: LYKAAAAA
binding result (GST-Pirh2_(15-195)): binds

B16: YKAAAAA (peptide)
peptide: YKAAAAA
binding result (GST-Pirh2_(15-195)): binds

B17: MDELYKAAAAAA-NH2 (peptide)
peptide: MDELYKAAAAAA-NH2
fold reduction of affinity against the Ala-tail peptide with free carboxyl (GST-Pirh2_(15-195)): ~2000 fold

Results, then the binder that gave them:

binding result (GST-Pirh2_(15-195)): binds
B8: ELYKAAAAA (peptide)
peptide: ELYKAAAAA

IC50 (GST-Pirh2_(15-195)): ~2000 nM
B9: MDELYKAAAA (peptide)
peptide: MDELYKAAAA

binding result (GST-Pirh2_(15-195)): binds
B11: DELYKAAAAA (peptide)
peptide: DELYKAAAAA

binding result (GST-Pirh2_(15-195)): binds
B13: KAAAAA (peptide)
peptide: KAAAAA

binding result (GST-Pirh2_(15-195)): binds
B14: MDELAAAAA (peptide)
peptide: MDELAAAAA

IC50 (GST-Pirh2_(1–195)): 90 to 120 nM
IC50 (GST-Pirh2_(15-195)): 50 to 120 nM
IC50 [1]: 5 to 10 nM
B15: MDELYKAAAAAA (Ala-tail peptide, non-biotinylated) (peptide)
peptide: MDELYKAAAAAA

Reference: PMC10591846 (Cell reports, 2023)
